Data published in article PMC5861120, “Architecture of the Saccharomyces cerevisiae NuA4/TIP60 complex” (Nature Communications, 2018).
Blank lines part the entries; values can stand above or below the binder they belong to.

Experiments:
[1] = target: T1, Purified native TINTIN (Eaf5-Eaf7-Eaf3) (S. cerevisiae, UniProt P39995 1-279; P53911 1-425; Q12432 1-401); experiment: pull-down; 300–600 ng GST-tagged Eaf1 fragments immobilised on glutathione sepharose, incubated with purified native TINTIN or His-tagged Tra1 (3200–3744) for 3–4 h at 4 °C; binding buffer 25 mM HEPES pH 7.5, 100 mM NaCl, 10% glycerol, 0.1% Tween-20; western blotting (anti-TAP, anti-Eaf3, anti-His); conditions: both partners purified
T1 construct: Eaf5, S. cerevisiae; Eaf7, S. cerevisiae; Eaf3, S. cerevisiae; The pull-down blots used anti-TAP and anti-Eaf3, so one subunit probably carries a TAP tag or its remnant; also called TINTIN subcomplex; source: purified native TINTIN; copies: + +
T1 sequence (looked up) 1: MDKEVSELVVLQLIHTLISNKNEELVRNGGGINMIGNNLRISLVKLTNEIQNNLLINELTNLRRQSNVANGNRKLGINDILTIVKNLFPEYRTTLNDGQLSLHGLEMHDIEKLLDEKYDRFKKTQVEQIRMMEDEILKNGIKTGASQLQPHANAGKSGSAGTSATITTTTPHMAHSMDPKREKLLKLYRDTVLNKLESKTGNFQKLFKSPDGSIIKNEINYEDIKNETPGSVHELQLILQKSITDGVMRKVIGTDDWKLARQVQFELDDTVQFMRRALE
T1 sequence (looked up) 2: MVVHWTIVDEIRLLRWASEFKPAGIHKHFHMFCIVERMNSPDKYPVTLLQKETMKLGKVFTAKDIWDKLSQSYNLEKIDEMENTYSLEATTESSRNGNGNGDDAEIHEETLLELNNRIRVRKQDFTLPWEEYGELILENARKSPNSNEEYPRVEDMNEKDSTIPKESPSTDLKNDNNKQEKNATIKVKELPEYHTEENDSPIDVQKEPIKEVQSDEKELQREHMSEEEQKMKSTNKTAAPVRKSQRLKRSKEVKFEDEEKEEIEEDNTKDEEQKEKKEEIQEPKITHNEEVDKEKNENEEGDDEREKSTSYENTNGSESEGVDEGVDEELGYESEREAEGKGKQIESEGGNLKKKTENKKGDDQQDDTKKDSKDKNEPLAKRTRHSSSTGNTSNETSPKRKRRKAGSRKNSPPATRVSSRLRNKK
T1 sequence (looked up) 3: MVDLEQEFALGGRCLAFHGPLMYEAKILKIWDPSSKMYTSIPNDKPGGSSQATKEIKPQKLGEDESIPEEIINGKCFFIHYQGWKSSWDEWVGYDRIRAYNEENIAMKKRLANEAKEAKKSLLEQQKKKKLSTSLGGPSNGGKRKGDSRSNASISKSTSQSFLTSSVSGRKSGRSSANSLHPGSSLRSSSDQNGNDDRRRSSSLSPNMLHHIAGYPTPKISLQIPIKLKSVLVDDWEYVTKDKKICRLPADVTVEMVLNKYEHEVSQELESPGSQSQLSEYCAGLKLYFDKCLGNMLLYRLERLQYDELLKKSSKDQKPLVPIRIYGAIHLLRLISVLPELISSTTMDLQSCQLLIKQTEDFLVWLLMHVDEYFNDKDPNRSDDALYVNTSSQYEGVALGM

[2] = target: T2, Recombinant His-tagged Tra1 (3200–3744) (S. cerevisiae, UniProt P38811 3200-3744); experiment: as above; conditions: both partners purified
T2 construct: Tra1, S. cerevisiae, residues 3200–3744 (FRB-PI3K-FATC); also called recombinant Tra1 C-terminus (FRB-PI3K-FATC); source: recombinant, bacterial culture, purified (Ni-NTA, eluted with imidazole)
T2 sequence (looked up): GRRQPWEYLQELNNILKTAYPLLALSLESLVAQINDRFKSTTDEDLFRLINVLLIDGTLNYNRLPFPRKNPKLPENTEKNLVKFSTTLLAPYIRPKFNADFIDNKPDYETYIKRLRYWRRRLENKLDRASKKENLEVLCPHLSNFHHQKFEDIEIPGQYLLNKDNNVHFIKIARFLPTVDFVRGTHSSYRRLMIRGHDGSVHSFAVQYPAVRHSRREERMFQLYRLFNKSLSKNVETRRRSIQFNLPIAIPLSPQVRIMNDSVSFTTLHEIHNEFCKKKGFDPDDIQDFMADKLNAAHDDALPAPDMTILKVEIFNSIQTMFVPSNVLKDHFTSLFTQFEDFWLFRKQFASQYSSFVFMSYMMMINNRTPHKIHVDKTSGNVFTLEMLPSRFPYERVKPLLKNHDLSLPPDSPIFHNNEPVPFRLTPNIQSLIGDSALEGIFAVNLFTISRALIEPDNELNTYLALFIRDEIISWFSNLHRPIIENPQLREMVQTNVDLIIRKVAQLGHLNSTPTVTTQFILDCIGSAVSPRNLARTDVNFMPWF

binding result [1]: binds
B1: GST-tagged Eaf1 (1–530) (domain or fragment, S. cerevisiae, UniProt Q06337 1-530, looked up)
chain: MSSRPSSAVPNSASLSEDQSSDRSKFPKADDLIDERDRKLTELYCVSRLNQLLELTDENKLRKEIDAFLKKNDIRRGIRFDEASLPKLLHTAATPITKKKLKDVNLINVPNQRLSDSKMSRELPENSENVSVKSESHFVPSHDNSIRENMMDSLRPAEKTGGMWNKRPLESTMGGEEERHEKRQKMQSQSLESSNNSEMASLPISPRPPVPNALAHYTYYENIEYPPADPTEVQPAVKFKDPLIKNIMAKEIDTSDHYNENNVDALETVFLLMNDYIPSKIPQALPLAELKYMSQTLPLINLIPRAHKALTTNIINNALNEARITVVGSRIEELRRLGLWSLRQPKRFIDPWKQHNTHQNILLEEAKWMQADFKEGHKYKVAICTAMAQAIKDYWTYGEICCVKRKTLLPGKENKLSDDGRISEKSGRPSDTSRNDSDISIAGKDDIGIIANVDDITEKESAAANDNDENGKNEAGAKSDFDFADGLLSQEGAHDQIISSIDTKLLLKKPSSSSEVVLIQHEVAASSALI
notes: also called Eaf1 N-terminal half; N-terminal portion of Eaf1; source: recombinant, bacterial culture, held on glutathione sepharose beads

binding result [2]: binds
B2: GST-tagged Eaf1 (536–982) (domain or fragment, S. cerevisiae, UniProt Q06337 536-982, looked up)
chain: KKELAPPFKLSIFVDELNTFEKTLIQDLPLYNGINEERPKKDDSLPFIPISKSVVSLDDNGFYKLLERQLIDEEPSISQLSKRRGMFYGNRRNHYLRPPAVPSLRYLQNRTPTIWLSEDDQELVKNINTYGYNWELISAHMTHRLTYSYLSNIERRTPWQCFERFVQLNERFNFSDLKGPRAHSAQQWLIEAHKFQQRQNRRISPLGVNTESIQRGHRRLRWASMFEAIRKCMKKRENTPRPNPTQPRKPLDCKNMKVPTPAEMSLLKAQRDEALRRDIQLRRTVKNRLQQRQQQSQQAHSSRAQSPIPSNGKSSSNLARNGQASAPRPNQKQYTEQDIIESYSRKLLEQKPDIGPEMALKAAKNYYRTLREQQQQLKQHQIQQQRQQLQEESSHVQQLQQLQPGSQAPPPKSSPSQSSLSNISNINSAPRIKSPTPQEILQRFQKQ
notes: also called Eaf1 C-terminal half; C-terminal region of Eaf1; source: recombinant, bacterial culture, held on glutathione sepharose beads
